In publication PMC7150849:

How the values were obtained:
[1] = target: CHR-derived peptide C34 of HIV-1 92RW020 gp41 (HIV-1 92RW020); assay: ITC
[2] = target: CHR-derived peptide C34 of HIV-1 92RW020 gp41 with the N126K mutation (HIV-1 92RW020); assay: ITC
[3] = target: CHR-derived peptide C34 of HIV-1 92RW020 gp41 with the N126K mutation (HIV-1 92RW020); assay: circular dichroism spectroscopy
[4] = target: CHR-derived peptide C34 of HIV-1 JRFL gp41 (HIV-1 JRFL); assay: ITC
[5] = target: CHR-derived peptide C34 of HIV-1 JRFL gp41 with the N126K mutation (HIV-1 JRFL); assay: ITC
[6] = target: CHR-derived peptide C34 of HIV-1 JRFL gp41 with the N126K mutation (HIV-1 JRFL); assay: circular dichroism spectroscopy
[7] = target: CHR-derived peptide C34 of HIV-1 NL4-3 gp41 with the N126K mutation (HIV-1 NL4-3); assay: ITC
[8] = target: CHR-derived peptide C34 of HIV-1 NL4-3 gp41 with the N126K mutation (HIV-1 NL4-3); assay: circular dichroism spectroscopy

Substance: NHR-derived peptide N36 of HIV-1 92RW020 gp41
- Ka [1]: 940000 M⁻¹
- dH [1]: -49 kcal/mol
- stoichiometry N [1]: 1.4 Site
- Ka [2]: 1.3e+06 M⁻¹
- dH [2]: -55 kcal/mol
- stoichiometry N [2]: 1 Site
- Tm of the complex [3]: 62.7 °C

Substance: NHR-derived peptide N36 of HIV-1 JRFL gp41
- Ka [4]: 430000 M⁻¹
- dH [4]: -44 kcal/mol
- stoichiometry N [4]: 1.3 Site
- Ka [5]: 1.2e+06 M⁻¹
- dH [5]: -35 kcal/mol
- stoichiometry N [5]: 1.4 Site
- Tm of the complex [6]: 62.7 °C

Substance: NHR-derived peptide N36 of HIV-1 NL4-3 gp41 (from UniProt P04578 546-581)
- Ka [7]: 1.9e+06 M⁻¹
- dH [7]: -38 kcal/mol
- stoichiometry N [7]: 1.2 Site
- Tm of the complex [8]: 68.5 °C
